Data on 84 variants can be found in the RNAGym collection of RNA variant scans (doi:10.1073/pnas.2313332121).

To fix the notation:
B1: TPR 5TU (parent)
chain: GGAUCUUCUCGAUCUAACAAAAAAGACAAAUCUGCCACAAAGCUUGAGAGCAUCUUCGGAUGCAGAGGCGGCAGCCUUCGGUGGCGCGAUAGCGCCAACGUUCUCAACUAUGACACGCAAAACGCGUGCUCCGUUGAAUGGAGUUUAUCAUG

Fewer inactive variants are shown than the library holds.

In this data set the parent is B1. Nature of the data set: polymerase ribozyme fitness, log enrichment relative to wild type (log ratio); higher = more active; in vitro selection for triplet polymerase activity. Summed up:
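Mutant libraries for each subunit of a heterodimeric triplet polymerase ribozyme were made by PCR and then transcribed. Each library underwent one round of in vitro selection in triplicate: annealing with a biotinylated primer, the partner subunit and triplets, frozen incubation at −7 °C, gel excision of extended constructs, streptavidin-bead capture and RT-PCR. Input and output libraries were Illumina-sequenced, and only genotypes with ≥10 input reads and ≥1 read per output were kept. Fitness is the logarithm, base 2, of genotype enrichment over wild-type enrichment, computed from inverse-variance-weighted replicate averages.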
In the case of A47G U55A C116G, the “polymerase ribozyme fitness (log ratio)” value is -0.139.

As for A47C U55A C87G A91G A150G, the “polymerase ribozyme fitness (log ratio)” value was no more than -4.2.

G46U A98G: the “polymerase ribozyme fitness (log ratio)” value was 0.0194.

On to G42A G94U, for which the “polymerase ribozyme fitness (log ratio)” value was no more than -4.2.

C43U U53G: the “polymerase ribozyme fitness (log ratio)” value is no more than -4.2.

For U45A A47U U77G C114G A122U, the “polymerase ribozyme fitness (log ratio)” value is no more than -4.2.

Consider U45A A52G C116G, for which the “polymerase ribozyme fitness (log ratio)” value is -3.56.

Take U44A C54A C75G G92U U145C: the “polymerase ribozyme fitness (log ratio)” value is no more than -4.2.

Consider U44A C93U C99A U111G A138G G152U, for which the “polymerase ribozyme fitness (log ratio)” value is -3.36.

Regarding C43U U61A G80A G94U A106C A122U, the “polymerase ribozyme fitness (log ratio)” value is no more than -4.2.

Regarding U44A A52G C85A C118U, the “polymerase ribozyme fitness (log ratio)” value was no more than -4.2.

For the variant G42U A52C C93U, the “polymerase ribozyme fitness (log ratio)” value was no more than -4.2.

A47U A49C C51U C93A: the “polymerase ribozyme fitness (log ratio)” value is no more than -4.2.

In the case of G42A G86A, the “polymerase ribozyme fitness (log ratio)” value was -3.97.

With U45A G65A U82A A106U, the “polymerase ribozyme fitness (log ratio)” value is -0.414.

Turning to A47C C51U C54U C72U G84U, the “polymerase ribozyme fitness (log ratio)” value is -3.18.

Take G42U C57A: the “polymerase ribozyme fitness (log ratio)” value is no more than -4.2.

On to C43U C132U, for which the “polymerase ribozyme fitness (log ratio)” value was no more than -4.2.

As for U44A C54A U77A G92C C118A A120G G136C G140A, the “polymerase ribozyme fitness (log ratio)” value was no more than -4.2.

With G42C A52C A64G G80A C96A C108U A110G, the “polymerase ribozyme fitness (log ratio)” value is no more than -4.2.

G46C A52G A137G: the “polymerase ribozyme fitness (log ratio)” value was -2.44.

Consider G42C U148C, for which the “polymerase ribozyme fitness (log ratio)” value was no more than -4.2.

As for A47C C85G C96U C125U, the “polymerase ribozyme fitness (log ratio)” value was no more than -4.2.

As for G42U G80A U104C, the “polymerase ribozyme fitness (log ratio)” value was no more than -4.2.

Regarding C43U G83U A120G, the “polymerase ribozyme fitness (log ratio)” value was no more than -4.2.

On to C43U C54U U61A A64C G84U U127A C131G A142G, for which the “polymerase ribozyme fitness (log ratio)” value was no more than -4.2.

Consider U44G A120U, for which the “polymerase ribozyme fitness (log ratio)” value was no more than -4.2.

Turning to U44A G58C G92C G141U C149A, the “polymerase ribozyme fitness (log ratio)” value is no more than -4.2.

Regarding U44A C54U U82G C87A C123U, the “polymerase ribozyme fitness (log ratio)” value was no more than -4.2.

Consider U45A U55A, for which the “polymerase ribozyme fitness (log ratio)” value is -2.95.

With G46A A52C U61G, the “polymerase ribozyme fitness (log ratio)” value is -0.687.

On to G46C A49U U56A G86A C87A C103G A147U, for which the “polymerase ribozyme fitness (log ratio)” value was no more than -4.2.

Regarding G42C U55A A60U C87U A115U, the “polymerase ribozyme fitness (log ratio)” value is no more than -4.2.

Regarding U45G A137C, the “polymerase ribozyme fitness (log ratio)” value was -4.14.

Take C43A G80C G94U: the “polymerase ribozyme fitness (log ratio)” value is no more than -4.2.

For C43A C87U G136C, the “polymerase ribozyme fitness (log ratio)” value is no more than -4.2.

In the case of U45G C93A C116U, the “polymerase ribozyme fitness (log ratio)” value was -2.88.

Turning to G42C C43U C54U A98G A120G, the “polymerase ribozyme fitness (log ratio)” value was no more than -4.2.

As to U44G G136A, the “polymerase ribozyme fitness (log ratio)” value was -3.71.

As to U44G A60U A115C, the “polymerase ribozyme fitness (log ratio)” value was no more than -4.2.

As to U45G G50C G81C C85A C118A, the “polymerase ribozyme fitness (log ratio)” value is no more than -4.2.

As for U45A A106G, the “polymerase ribozyme fitness (log ratio)” value is -1.7.

On to C43U C72U G92U, for which the “polymerase ribozyme fitness (log ratio)” value is no more than -4.2.

Turning to U45A G83C, the “polymerase ribozyme fitness (log ratio)” value is -3.51.

Turning to U45A C93A G141A, the “polymerase ribozyme fitness (log ratio)” value was -4.05.

For the variant G42C U101G G136U, the “polymerase ribozyme fitness (log ratio)” value is no more than -4.2.

With G42U G59U G92U G126A U135A U144A, the “polymerase ribozyme fitness (log ratio)” value is no more than -4.2.

As to G46U G58U A89U U102G C118G C129A G152U, the “polymerase ribozyme fitness (log ratio)” value is no more than -4.2.

As to U44A G81A A137G, the “polymerase ribozyme fitness (log ratio)” value is no more than -4.2.

For the variant C43G A49C G68C C72U A97U, the “polymerase ribozyme fitness (log ratio)” value is no more than -4.2.

On to G42U A64C C79U G88A A106G A107C A147U, for which the “polymerase ribozyme fitness (log ratio)” value was no more than -4.2.

With A47G G133C C149G, the “polymerase ribozyme fitness (log ratio)” value was -3.65.

G46C U101G A107U A137C: the “polymerase ribozyme fitness (log ratio)” value was -4.12.

Turning to U45C A52G C57A G92C, the “polymerase ribozyme fitness (log ratio)” value was -2.64.

As to U44G A73G A91G A107C, the “polymerase ribozyme fitness (log ratio)” value was no more than -4.2.

For the variant U44A A73U C105G A120G, the “polymerase ribozyme fitness (log ratio)” value is no more than -4.2.

Consider A47C C51U U53A C54A G141U, for which the “polymerase ribozyme fitness (log ratio)” value was -4.13.

For C43A C69G G92C, the “polymerase ribozyme fitness (log ratio)” value is no more than -4.2.

U44A U56A U61A A97U: the “polymerase ribozyme fitness (log ratio)” value was no more than -4.2.

On to U45A C76U C125G, for which the “polymerase ribozyme fitness (log ratio)” value was -3.81.

Consider U44A U55A C75A G84A C105U, for which the “polymerase ribozyme fitness (log ratio)” value was no more than -4.2.

On to U45A U56G A66C G67C G71U C85G G88U A89G C99U A110G C132G, for which the “polymerase ribozyme fitness (log ratio)” value is no more than -4.2.

As to U45A A52G C118A, the “polymerase ribozyme fitness (log ratio)” value was -4.18.

As for C43G U55C G70A C85A C87G C95U G133U, the “polymerase ribozyme fitness (log ratio)” value is no more than -4.2.

As to G46C U90A, the “polymerase ribozyme fitness (log ratio)” value was no more than -4.2.

In the case of U44A C79U A89G U104A A107G, the “polymerase ribozyme fitness (log ratio)” value is no more than -4.2.

Take U45A A49G G84U A115G A120G: the “polymerase ribozyme fitness (log ratio)” value was no more than -4.2.

On to U44A C51U C76U A106U A110G, for which the “polymerase ribozyme fitness (log ratio)” value is no more than -4.2.

For G46U G62A C76A C87U G88A C118U U134A, the “polymerase ribozyme fitness (log ratio)” value is no more than -4.2.

For the variant G46C U53A G92U U111G U134C, the “polymerase ribozyme fitness (log ratio)” value is no more than -4.2.

As to G46A C54A G94C G117A A122U G124A, the “polymerase ribozyme fitness (log ratio)” value was -3.11.

With G42A G48U G58U C75G G83A U104G, the “polymerase ribozyme fitness (log ratio)” value is no more than -4.2.

In the case of A47G C54A, the “polymerase ribozyme fitness (log ratio)” value is -1.65.

With G46U A91C C105U C114U U146G, the “polymerase ribozyme fitness (log ratio)” value was no more than -4.2.

In the case of C43A G83C U90G G140U, the “polymerase ribozyme fitness (log ratio)” value was no more than -4.2.

Take U44C G88A U135A U139G: the “polymerase ribozyme fitness (log ratio)” value is no more than -4.2.

For A47C G92A A107G, the “polymerase ribozyme fitness (log ratio)” value is no more than -4.2.

Turning to U44C C54U, the “polymerase ribozyme fitness (log ratio)” value was -3.56.

Take G42A G71A A91U A97U G100C: the “polymerase ribozyme fitness (log ratio)” value was no more than -4.2.

In the case of G46A G50A, the “polymerase ribozyme fitness (log ratio)” value is -0.957.

Consider U44A G67A U77G U78G C87A C95G, for which the “polymerase ribozyme fitness (log ratio)” value was no more than -4.2.

As to C43U U78A C85A A115C, the “polymerase ribozyme fitness (log ratio)” value is no more than -4.2.

Take G42A G58C C79A C118U A142U: the “polymerase ribozyme fitness (log ratio)” value is no more than -4.2.

As for U44A G50C G84U G88A U139C G152A, the “polymerase ribozyme fitness (log ratio)” value was no more than -4.2.
